For one substance, Max (%), maximum level of inhibition results are on record in patent publication US20150274829A1.

For this assay, the target named is hu IGF-1R(ECD)-C3-muIgG1 Fc (human; mouse). The assay can be described thus: ORIGEN dose response competition on IGF-1R(ECD)-C3-muFc beads; competitor 1 nM Ru-IGF-1.

“murine anti-IGF-1R antibody αIR3 (Calbiochem)” displayed a Max (%), maximum level of inhibition at 1 µM antibody concentration of 91%.
